Results reported in PMC3475689, “Leishmania donovani Argininosuccinate Synthase Is an Active Enzyme Associated with Parasite Pathogenesis” (PLoS Neglected Tropical Diseases, 2012).

T1: LdPEX5, PTS1 receptor protein peroxin 5 of Leishmania donovani, recombinant (Leishmania donovani, UniProt A0A3S7X906 1-625)
T1 construct: Peroxin 5 (LdPEX5), the PTS1 receptor of Leishmania donovani; construct not described here; also called receptor peroxin 5; glycosomal PTS1 targeting receptor protein
T1 sequence (looked up): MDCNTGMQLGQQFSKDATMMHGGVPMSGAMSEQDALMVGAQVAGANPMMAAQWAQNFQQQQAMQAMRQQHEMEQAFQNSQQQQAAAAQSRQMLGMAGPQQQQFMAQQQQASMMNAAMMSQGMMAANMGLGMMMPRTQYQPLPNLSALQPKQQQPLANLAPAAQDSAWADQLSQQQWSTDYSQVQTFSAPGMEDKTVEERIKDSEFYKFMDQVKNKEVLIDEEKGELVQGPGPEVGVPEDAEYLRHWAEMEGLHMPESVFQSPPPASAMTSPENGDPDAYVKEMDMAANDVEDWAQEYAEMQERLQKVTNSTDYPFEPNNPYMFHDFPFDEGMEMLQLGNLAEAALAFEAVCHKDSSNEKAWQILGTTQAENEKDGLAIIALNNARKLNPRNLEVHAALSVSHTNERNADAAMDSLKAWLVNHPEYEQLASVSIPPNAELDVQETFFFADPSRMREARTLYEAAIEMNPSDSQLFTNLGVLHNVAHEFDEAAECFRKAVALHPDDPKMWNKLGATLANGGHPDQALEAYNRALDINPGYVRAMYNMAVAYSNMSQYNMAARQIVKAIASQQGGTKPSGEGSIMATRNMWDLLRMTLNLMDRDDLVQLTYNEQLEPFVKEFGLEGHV


Key:
LdASS (V5His-LdASS^WT) = molecular target: T2, LdASS (V5His-LdASS^WT) (Leishmania donovani, UniProt H9BG20); assay: malachite green Pi release, pyrophosphatase-coupled; format: biochemical; conditions: read-out: % inhibition at 1 mM
T2 construct: full length (419 residues predicted, 46 kDa), N-terminal V5 and His6 tags kept; overexpressed in L. donovani amastigotes, Ni-NTA pull-down, assayed on beads; tetramer inferred from other ASS; CBZ34226.1 (BPK282A1) stated identical

[1] = molecular target: T1, LdPEX5, PTS1 receptor protein peroxin 5 …; assay: ELISA; plates coated with 100 µL of 10 µg/mL LdIMPDH or LdASS variant in PBS, 4°C, 16 h; blocked with 2% BSA; purified LdPEX5 at 0.01-400 nM; bound LdPEX5 detected with anti-LdPEX5 polyclonal antisera; apparent Kd; conditions: both partners purified
[2] = molecular target: V5His-LdASS^G128S, recombinant Leishmania donovani argininosuccinate synthase G128S with N-terminal V5 epitope and hexahistidine tags (Leishmania donovani); assay: as above

Molecule	Kd [1] [nM]	other results
CC(N)(CC(=O)O)C(=O)O (racemic) [MDLA, methyl-D-L-Aspartic acid]		inhibition at 1000 µM (LdASS (V5His-LdASS^WT)): ~60%
V5His-LdASS^WT, recombinant Leishmania donovani argininosuccinate synthase with N-terminal V5 epitope and hexahistidine tags (enzyme, UniProt H9BG20 1-418, looked up, Argininosuccinate synthase (LdASS) of Leishmania donovani strain Ld1S2D; predicted protein identical to L. infantum LinJ.23.0300 and L. donovani BPK282A1 CBZ34226.1; C-terminal Ser-Ser-Leu (PTS1) left free; Made from the pCRT7 plasmid with primers F3/R3 and ligated into pEXP-5-NT/TOPO; also called rLdASS WT, N-terminal tagged; pEXP5-V5HisLdASS^WT; source: E. coli BL21 (DE3) pLysS, purified …) MPATATEVVCGKKPRVVLAYSGGLDTSVIIPWLKENYDYEVIACCANVGQGAGEIDGLEEKAKKSGASKLYLLDLREEYVTDYIFPTLKAGATYEGKYMLGTSHARPLIAKHLVEVAHKEGAVAICHGATGKGNDQVRFELAVMALDPSLKCVAPWREWNIKSREDAIDYAEAHGVPVPCTKSDLYSRDRNLWHISHEGMDLEDPANEPAYARLLRLCNTVEKAPDEAEYVAVQFEKGIPVAVNGRKMSSVELVEELNALGGKHAIGIEDIVEDRLVGMKSRGVYETPAGTILYKALDMLESLCLDRDTQSFKRQSAVRFSELVYDGKWFTPLRESMSAMFDQMAETVTGEATLKLYKGNLVPAGAQSPYSLYNKNIASFGDSKHLYNHHDAEGFIRLFGLPLRVRSMMKAKEMPSSL	~5	
LdIMPDH, glycosomal PTS1 protein inosine monophosphate dehydrogenase of Leishmania donovani, recombinant (enzyme, UniProt P21620 1-514, looked up, Inosine monophosphate dehydrogenase (LdIMPDH) of Leishmania donovani, with the C-terminal tripeptide PTS1 signal Ala-Lys-Met; construct not described here) MATNNANYRIKTIKDGCTAEELFRGDGLTYNDFIILPGFIDFGAADVNISGQFTKRIRLHIPIVSSPMDTITENEMAKTMALMGGVGVLHNNCTVERQVEMVKSVKAYRNGFISKPKSVPPNTPISNIIRIKEEKGISGILVTENGDPHGKLLGIVCTKDIDYVKNKDTPVSAVMTRREKMTVERAPIQLEEAMDVLNRSRYGYLPIVNENDEVVNLCSRRDAVRARDYPHSTLDKSGRLICAAATSTRPEDKRRVAALADVGVDVLVLDSSQGNTIYQIAFIKWVKSTYPHLEVVAGNVVTQDQAKNLIDAGADGIRIGMGSGSICITQEVLACGRPQGTAVYKVAQYCASRGVPCTADGGLRQVGDICKALAIGANCAMLGGMLSGTTETPGEYFFKGGVRLKVYRGMGSLEAMSQGKESGKRYLSENEAVQVAQGVSGNVVDKGSAAKLIAYVSKGLQQSAQDIGEISFDAIREKMYAGQVLFSRRSPTAQGEGGVHSLHSYEKKLFAAKM	~5	
LdPEX5, PTS1 receptor protein peroxin 5 of Leishmania donovani, recombinant (receptor) MDCNTGMQLGQQFSKDATMMHGGVPMSGAMSEQDALMVGAQVAGANPMMAAQWAQNFQQQQAMQAMRQQHEMEQAFQNSQQQQAAAAQSRQMLGMAGPQQQQFMAQQQQASMMNAAMMSQGMMAANMGLGMMMPRTQYQPLPNLSALQPKQQQPLANLAPAAQDSAWADQLSQQQWSTDYSQVQTFSAPGMEDKTVEERIKDSEFYKFMDQVKNKEVLIDEEKGELVQGPGPEVGVPEDAEYLRHWAEMEGLHMPESVFQSPPPASAMTSPENGDPDAYVKEMDMAANDVEDWAQEYAEMQERLQKVTNSTDYPFEPNNPYMFHDFPFDEGMEMLQLGNLAEAALAFEAVCHKDSSNEKAWQILGTTQAENEKDGLAIIALNNARKLNPRNLEVHAALSVSHTNERNADAAMDSLKAWLVNHPEYEQLASVSIPPNAELDVQETFFFADPSRMREARTLYEAAIEMNPSDSQLFTNLGVLHNVAHEFDEAAECFRKAVALHPDDPKMWNKLGATLANGGHPDQALEAYNRALDINPGYVRAMYNMAVAYSNMSQYNMAARQIVKAIASQQGGTKPSGEGSIMATRNMWDLLRMTLNLMDRDDLVQLTYNEQLEPFVKEFGLEGHV		Kd [2]: 5 nM
